# B1: glutamate dehydrogenase (GDH) from Geotrichum candidum S12 (Geotrichum candidum) (protein)
# chain: MVQPSEPEFEQAYNELLSTLKDSTLFEKRPELEKVIPIVSIPERVLQFRVVWEDDNGVAQVNRGYRVQFNSALGPYKGGLRFHPTVNLSILKFLGYEQIFKNALTGLNMGGGKGGSDFDPKGKSDSEIRRFCVAFMGELHRHIGADTDVPAGDINVGGREIGYLFGAYKKFKNTWEGVLTGKGLTWGGSLIRPEATGYGVVYYVEKMIEYATQGKESFAGKTVAISGSGNVAQYAALKVIELGGTVVSLSDSKGAFIATTAEGFTPAEIAEIADIKVSHAQLSTLADKFASKFKYLEGARPWVHVKADVALPCATQNEVSGEEAEALVANGTKFIAEGSNMGSTQEAIDVFEAERLKNPQGIWYAPGKAANAGGVAVSGLEMAQNSQRGNWSTEEVDQRLKEIMVNIFNTSVSTAVEYSSEKGDSLPSLVKGANIAGFVKVADAMHDHGDFW
# notes: identified by PMF similarity to Yaliof17820p (Yarrowia homologue)
# How the values were obtained:
# [1] = substrate: CCCCCCO; assay: GC of substrate decrease, Lineweaver-Burk; type: biochemical, Geotrichum candidum; details: NADP+, pH 4.0, 30 °C, Table 2 header prints mol/L, abstract mM
# [2] = substrate: CC(C)CCO; assay: GC of substrate decrease, Lineweaver-Burk; type: biochemical, Geotrichum candidum; details: NADP+, pH 4.0, 30 °C, Table 2 header prints mol/L, abstract mM
# purified protein [3] = substrate: O=C(O)CCC(=O)C(=O)O; assay: purified protein; type: biochemical, Geotrichum candidum; details: NADPH, NH4+, pH 4.0, 30 °C, Table 2 header prints μmol/L, abstract mM
# purified protein [4] = substrate: N[C@@H](CCC(=O)O)C(=O)O; assay: purified protein; type: biochemical, Geotrichum candidum; details: NADP+, pH 4.0, 30 °C, Table 2 header prints μmol/L, abstract mM, competitive with hexanol, b65 prints other Michaelis constants (61.02 and 13.43 mM, both called glutamate)
# purified protein [5] = substrate: NC(=O)C1=CN([C@@H]2O[C@H](COP(=O)(O)OP(=O)(O)OC[C@H]3O[C@@H](n4cnc5c(N)ncnc54)[C@H](OP(=O)(O)O)[C@@H]3O)[C@@H](O)[C@H]2O)C=CC1; assay: purified protein; type: biochemical, Geotrichum candidum; details: pH 4.0, 30 °C, printed unit doubtful: tested 0.01-0.1 mmol/L and same column is mM in abstract, so probably mmol/L, varied: cofactor
# purified protein [6] = substrate: N; assay: purified protein; details: pH 4.0, 30 °C, printed unit doubtful: tested 5-50 mmol/L and same column is mM in abstract, so probably mmol/L
protein,measurement,setting,value
B1,Km,[1],20.37 mM
same,Km,[2],19.37 mM
same,Km,purified protein [3],4.01 mM
same,Km,purified protein [4],41.74 mM
same,Km,purified protein [5],0.00013 mM
same,Km,purified protein [6],0.00535 mM

# Source: article PMC5209314, “Purification and characterization of a novel glutamate dehydrogenase from Geotrichum candidum with higher alcohol and amino acid activity” (AMB Express, 2017)
